According to patent US20220227815A1, “COMPOSITIONS AND METHODS USEFUL IN TREATING BRAIN DISEASES” (University of Kansas, priority 2019, published 2022):

Legend:
[1] = system: myelin in the lateral corpus callosum; assay: Remyelination in EAE mouse brain, Luxol fast blue staining; assay type: in vivo, SJL/elite mice; conditions: EAE mice; BDNF 5.71 nmol/kg ± ADTC5 10 μmol/kg; n=5; compared to BDNF alone or vehicle
From the text: Euthanasia, Brain Perfusion, and Extraction: All mice were euthanized via a CO2 chamber. Immediately following euthanasia, mice underwent cervical dislocation and were transcardially perfused with PBS+0.2% Tween-20 followed by perfusion-fixation with a 4% paraformaldehyde and 30% sucrose PBS solution. Following the fixation, the brains were extracted and post-fixed overnight in the perfusion-fixation solution.
Fixed brain samples were submitted to IHC World (Ellicott City, Md.) for paraffin embedding, tissue sectioning (5 μm), anti-NG2 (Abcam, Cambridge, UK) staining via DAB, and Luxol-fast blue staining. Staining protocols described on the IHC World website for Luxol-fast blue and immunohistochemistry enzyme HRP were performed. […]
Luxol-fast blue and anti-NG2 mAb images were taken under identical conditions on a Zeiss Axioplan 2 microscope (Oberkochen, Germany) equipped with a mercury lamp excitation source, and 40× (Luxol) and 20× (anti-NG2) air objective lenses. Greyscale images for quantification were taken using a 1344×1024 Orca ER CCD camera (Hamamatsu Photonics, Japan), color images for qualitative purposes were taken using a 1.3 MP Spot Color camera (Spot Imaging, Sterling Heights, Mich.). […] The mean value of each ROI from each image was recorded. […] The integrated mean grey value for each ROI from each image was recorded. […]

[2] = system: APP/PS1 mice; assay: Novel object recognition (NOR) assessment; assay type: in vivo, transgenic APP/PS1 mice; conditions: all groups compared
Description: (§1) Animals: All animal studies were carried out under the approved animal protocol (AUS-74-11) granted by Institutional Animal Care and Use Committee (IACUC) at The University of Kansas. Animal Care Unit (ACU) personnel and veterinarians were involved in the care of the animals used in this study. Female transgenic APP/PS1 (MMRRC stock #34832-Jax) were obtained from Jackson Laboratory (Bar Harbor, Me.) and housed until at least 6 months of age. Mice received intravenous (i.v.) injections of either BDNF (5.7 nmol/kg)+ADTC5 (10 μmol/kg; n=7), BDNF alone (5.7 nmol/kg; n=6), or vehicle (n=6) every 4 days, for a total of 8 injections. At the end of the study, the mice were euthanized via CO2 inhalation and perfused with PBS immediately followed by 4% formalin fixative solution. The brains were extracted and post-fixed overnight in the perfusion-fixation solution then transferred to 70% ethanol PBS solution for paraffin embedding.
Novel object recognition assessment: Twenty-four hours following the Y-maze assessment, the mice were subjected to Novel Object Recognition (NOR) assessment. […] The mice were allowed to explore the objects for 10 min and the total amount of time each mouse spent interacting with each object was measured. […]

[3] = system: amyloid beta plaques; assay: Amyloid beta plaque load in hippocampus, Congo red staining; assay type: in vivo, transgenic APP/PS1 mice; conditions: APP/PS1 mice; 8 injections; all three groups compared; n=5
Description: as §1
Coronal brain sections (10 μm thickness) were generated and mounted onto gelatin-coated slides (Superfrost Plus, Thermo Fisher Scientific, Waltham, Mass.). For both Aβ histology and NG2 receptor immunohistochemistry, sections were deparaffinized using xylene and serially hydrated from 95% ethanol to distilled water. […] Aβ plaque levels were quantified by counting the number of plaques from the hippocampus at 10× magnification from 5 random sections per group (n=5).

B1: BDNF: recombinant brain-derived neurotrophic factor (13 kDa monomer), Peprotech (protein, UniProt P23560 19-247, looked up)
Neurotrophic factor BDNF …: APMKEANIRGQGGLAYPGVRTHGTLESVNGPKAGSRGLTSLADTFEHVIEELLDEDQKVRPNEENNKDADLYTSRVMLSSQVPLEPPLLFLLEEYKNYLDAANMSMRVRRHSDPARRGELSVCDSISEWVTAADKKTAVDMSGGTVTVLEKVPVSKGQLKQYFYETKCNPMGYTKEGCRGIDKRHWNSQCRTTQSYVRALTMDSKKRIGWRFIRIDTSCVCTLTIKRGR
B1 was tested, and the “myelin density in the lateral corpus callosum” value [1] was “myelin discontinuity”, the “total time spent with either of the two objects” value [2] was “no significant difference” and the “amounts of amyloid beta plaques in hippocampus” value [3] was “no significant difference”.
